# Data: the domain aggregation screens of Martell et al. (2025)
# Test: soluble fraction after stress (log2 fold change); higher = more stays soluble; pooled small domains, quantitative proteomics
# Conditions: stress: 75 degC
# 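Further: 20 min heating vs room temperature control held 20 min.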
row,Sequence,soluble fraction (log2)
1,HMGSLAVVPSLTGKTLQEAQSKAADYGLALEIEGYVASTAVDYGRIVSQSPDAGFSVKSGSSVKVSVSAG,-0.0619
2,HMGSLGRAIRSRREKMKVGLEELAAKTGLSESHISDIEEGRGFAPVGDILKIARALTIDPGELLK,0.49
3,HMGSLGSLLKSVRNQRGLSRQQMAQSLNIGVRAIEQIEEGERKPDLELLNRYARGLMDPSVT,-0.166
4,HMGSLKEKIVLLEKLYQQNPSEEIKLLLINTYQLNHQYIQARKLFFTLTPEQKEKLPLASEFLIFL,-1.04
5,HMGSLNDQVMKYIDALPSAFNKRELDFLIERGVKEFALNGEYLEKAIINEYKLTADTYHRER,0.0903
6,HMGSLQPLLLAAIDALQTHIRSGLPFRVEERLAELDQFRTELQNGSVPPQRGVNRLWAFYEDEFRL,-1.06
7,HMGSLRSALDGIPGIGEQYQKRLLAQFGSVKAMRSASVEDFEAVRGIGRAKAQALYDALHAG,-0.221
8,HMGSLVVVPNLVGQNYDEVKLSTKYSDFEIVQKNTEYSEAPAGQIIKQDPEAGTKVKKHSTINVTVSK,-0.167
9,HMGSQELIQLGERIRQKRKDSHLTQETFAEKAGISVNTVSRIEGGQAAMSIEIFAKLVEILDADANELLG,-1.39
10,HMGSRAEAKEFLQTMLADGRQLATDMEEARQAHDIADRTLRRARKELNVQVYRDGNAWYWELPTPIK,-0.585
11,HMGSREVPFSDFISKVESGSVLEVVLRGRQVEGLTDANERFQTQIPNYPALFEILERNQVRTRVEPT,-0.0642
12,HMGSTATVIASRLNMRASASTTGALLTKIPNGATVTVLGTTGAWSHIRYGSYTGYVMSQYLRING,-3.1
13,HMGSTVRIVVPAADIPAYKDIQPSDLEYREVPKDEISEDAVTDPQEVINKYSTSPLYAGWPINKNIIET,-0.0405
14,HMGSYANAWQLAEHAAKDMLGEVIYLLDGKEVHAGILETMSAESIKTASAENVDGKVVIRLVSK,-0.15
15,HMGSYIGEAKAKEIALSHAGVSASQATFVRSQFEYDDGRAVYDVDFWSGNKEYDYEIDAKSGTIVSYDFD,-0.736
16,HMGSYVVQLGAFAIRANAEKLAREVDGSIATSGRFSLVRVGPFTSRGQAEQALAKLRARGYSDALIHSL,-2.39

row,Sequence,soluble fraction (log2)
1,HMGTDFRPVFQYVDELVRAGEFTNLKGMIYFTDGRGIFPEKKPDYDAAFVFLDDGYDPPDVPVWAIKLVL,-0.0422
2,HMGTGSSAERITMLNSILERQIQAMEIQGNPDAPIVNIQKIYTTLQRIVETAGLKDVDQFFMNPLQGQKEM,-0.134
3,HMGTIRAPMPGTILKINVVDGDSVTKGDVLLILESMKMENSITSPKTGSVTSVYVSEGDPVQHGETLIDL,-0.196
4,HMGTISKRINPSGTTVYRAVIRIRKNGYPNFTESRTFSKKSMAAEWVKRREAEIELNPDILFG,-2.57
5,HMGTLSLLVQKLMAVGLEGAKASEIVERFDRERIERQINALPSRKIKSSRTGFLIRAIELDIPVE,-2.58
6,HMGTPKMPLSLYLSMVENLRSLKRFALVNQQVKDGFVFFNDVAGIKRLQELLNYHNTGEKPSE,-2
7,HMGTRIQAVMEDIQSRIAARTYLPGTRLPSVRAQAQAMQVSVSTVVEAYERLAAEGVIASRPGSGFYVAGP,-3.05
8,HMGTRPAYAADAPNPQKRFIYHRIVDQLRNKATGAPISYRAIAAETGVSVQTVINIKNRMNQMLSEK,-1.27
9,HMGTRPIQIASFSKEENAKRAVEALAKIGITAQPQKSGSATKAVWGVVANGDADLLAKIKAAGFADAYFL,0.0154
10,HMGTRTILGIDPGSRKTGFGIIRLDGSRTHYVSSGVIRIPDTALPERLKIIFASLNEIIQQFQPQEV,-0.339
11,HMGTRYVEFVIPGTGNHEVRIVSSNGSRQNVEVAGTYPGGARLRTKVDNGVRRVSFYVDNRLVEEKQ,-0.26
12,HMGTSFKITFYKDAFQVDDGPIRMLNDPANQKFVDEVSQGYAPKELIGQGGKAPEIDIIDKRSENAPT,0.156
13,HMGTVFTDIMTDIASGKFPNVFPDSLEAQIQKNVTMAPDKLSATLQYGDKSVILPTTKGKEAAEAAVKAA,0.000803
14,HMGTYTSALDGIKGLGKKRKMLLLNTYKSIDVLKSVPLTELSQLIPREVAEALLTKLNRVDD,-1.18
15,HMGVDASVDSKLDLLSQVLDSDQVKEQLPEAVLEQLAQNLDRWRSLHEESELQDDDIAELNRLLGLFGLG,0.111
